Experimental data as given in patent publication US8293529B2, “Method for inducing differentiation of pluripotent stem cells into cardiomyocytes” (Daiichi Sankyo Company, Limited, priority 2006, dated 2012).

Experiments:
human ES cells = details: rises from 15% without treatment; cited from earlier work
mouse ES cells [1] = assay: Wnt gene expression during induction of differentiation in ES cells (real-time PCR); format: cell-based; details: BMP antagonist treatment 15 ng/mL, 3 days before and immediately after induction; 72 hours after induction of differentiation; vs untreated group
Description: Various Wnt genes were studied for their expression during differentiation in mouse ES cells. For use in experiments, mouse ES cells were passaged and maintained in an undifferentiated state according to the methods as described in “Manipulating the Mouse Embryo: A Laboratory Manual” (Hogan et al., eds., Cold Spring Harbor Laboratory Press, 1994) and “Embryonic Stem Cells: Methods and Protocols” (Turksen ed., Humana Press, 2002) by using Knockout-DMEM (Invitrogen) medium containing 20% fetal bovine serum, 2 mmol/L L-glutamine and 0.1 mmol/L 2-mercaptoethanol (hereinafter referred to as ESM), supplemented with 1000 U/mL LIF (ESGRO; Chemicon). […]
The EBs thus prepared were collected periodically, and total RNA was prepared with an RNeasy mini kit (Qiagen), followed by DNase treatment. cDNA was synthesized from the DNase-treated total RNA (1 μg) using a SuperScript™ First-Strand Synthesis System for RT-PCR (Invitrogen). Analysis of gene expression was performed with an ABI PRISM 7700 (PE Applied Biosystems) by using a real-time polymerase chain reaction (PCR) quantification system with Lux primers to examine the expression level of each gene. The real-time PCR quantification was accomplished by using the above cDNA as a template and using Platinum Quantitative PCR SuperMix-UDG (Invitrogen) according to the instructions attached thereto. […]

mouse ES cells [2] = assay: Immunohistochemical staining of cardiomyocyte-specific marker proteins in EBs; format: cell-based; details: EBs at 10 days after induction of differentiation
Protocol: Subsequently, immunohistochemical staining was performed to confirm that beating cells developed in EBs from the Wnt-treated groups produced cardiomyocyte-specific marker proteins. EBs in the Wnt-treated group (Wnt^48˜120h group) at 10 days after induction of differentiation were freshly embedded in a compound for preparing frozen sections (OCT Compound, Sakura Finetek USA Inc.) and then frozen with liquid nitrogen. The frozen samples were sectioned at 6 μm of thickness and attached on glass slides. These frozen sections were reacted with anti-sarcomeric myosin antibody (MF20; American Type Culture Collection), anti-GATA-4 antibody (C-20; Santa Cruz) or anti-Nkx-2.5 antibody (N-19; Santa Cruz) as a primary antibody and then reacted with a horseradish peroxidase-labeled secondary antibody (Bio-RAD), and finally subjected to a color reaction with ACE (3-amino-9-ethylcarbazole) substrate solution (Nichirei Corporation, Japan) and observed under an optical microscope.

mouse ES cells [3] = assay: Appearance rate of EBs exhibiting spontaneous beating; format: cell-based; details: for occurrence of beating EBs: Wnt proteins added at 10 ng/mL to 50 ng/mL; for appearance rate of beating EBs: recombinant protein added at 1 ng/mL to 100 ng/mL
Protocol: Culture for inducing differentiation of ES cells into cardiomyocytes or neurons was accomplished in a routine manner as follows. ES cells were suspended in LIF-free medium, and the resulting suspension was seeded at 500 cells/50 μL per well of a commercially available 96-well culture plate for spheroid formation (Sumilon Celltight Spheroid; Sumitomo Bakelite Co., Ltd., Japan).
In the early stage of differentiation in ES cells, transient elevations in expression of various Wnt genes were observed prior to the appearance of cardiomyocytes. Then, ES cells at this stage were treated with recombinant Wnt proteins to study the myocardial differentiation-inducing effect of the proteins. Induction of ES cell differentiation was accomplished in the same manner as used in Example 1, except that some of the experimental groups were cultured in medium containing a commercially available recombinant WNT-1 (Peprotech), Wnt-3a (R&D systems) or Wnt-5a (R&D systems) protein. Treatment of ES cells in medium supplemented with a recombinant protein of canonical Wnt such as WNT-1 is hereinafter referred to as “Wnt treatment.”
The above canonical Wnt protein treatment is known to inhibit the action of GSK3β within cells and thereby promote stabilization of β-catenin and its transcription activation ability. Then, further studies were performed to confirm that treatment with various drugs capable of promoting stabilization of β-catenin and its transcription activation ability produced a myocardial differentiation-inducing effect on ES cells, as in the case of Wnt treatment. As drugs capable of promoting stabilization of β-catenin and its transcription activation ability, the following five commercially available compounds were used: GSK3β inhibitors BIO (Calbiochem), GSK3β inhibitor VII (Calbiochem), cell-permeable GSK3β peptide inhibitor (L803-mts; Calbiochem) and SB216763 (Biomol), as well as a Wnt agonist (Calbiochem) that promotes the transcription activation ability of β-catenin without GSK3β inhibition. ES cells were induced to differentiate in the same manner as used in the above Examples, and cultured in medium containing the above compounds during the time period between 48 and 120 hours ([…]) after induction of differentiation, as in the case of recombinant Wnt proteins.

cmES cells = assay: Immunohistochemical staining of marker proteins in EBs from cmES cells; format: cell-based, common marmoset; details: EBs at 16 days after induction of differentiation
Protocol: Subsequently, immunohistochemical staining was performed in the same manner as used in Example 2 to confirm that beating cells developed in EBs from the Wnt-treated groups were cardiomyocytes producing specific marker proteins. From EBs in the Wnt-treated groups (Wnt-3a, WNT-1) at 16 days after induction of differentiation, frozen sections were prepared and reacted with anti-sarcomeric myosin antibody, anti-GATA-4 antibody or anti-Nkx-2.5 antibody as a primary antibody. After color reaction, these sections were observed under an optical microscope.

Nc1ncn([C@@H]2O[C@H](CO)[C@@H](O)[C@H]2O)c(=O)n1 [5-azacytidine]
percentage of troponin I-positive cells (candidate cardiomyocytes) in EBs (human ES cells): 44%

B1: DAN: commercially available recombinant DAN protein (R&D systems), BMP antagonist (protein, UniProt P41271 17-181, looked up)
Neuroblastoma suppressor of …: AAPPPINKLALFPDKSAWCEAKNITQIVGHSGCEAKSIQNRACLGQCFSYSVPNTFPQSTESLVHCDSCMPAQSMWEIVTLECPGHEEVPRVDKLVEKILHCSCQACGKEPSHEGLSVYVQGEDGPGSQPGTHPHPHPHPHPGGQTPEPEDPPGAPHTEEEGAED
expression levels of the Wnt genes (Wnt-3, Wnt-3a, Wnt-8a) (mouse ES cells [1]): significantly higher than those of the untreated group | cells positive for sarcomeric myosin, Nkx-2.5 and GATA-4 (mouse ES cells [2]): the great majority of EB-constituting cells were found to be positive

B2: Chordin: commercially available recombinant Chordin protein (R&D systems), BMP antagonist (protein, UniProt Q9H2X0 27-955, looked up)
Chordin: AGPEPPVLPIRSEKEPLPVRGAAGCTFGGKVYALDETWHPDLGEPFGVMRCVLCACEAPQWGRRTRGPGRVSCKNIKPECPTPACGQPRQLPGHCCQTCPQERSSSERQPSGLSFEYPRDPEHRSYSDRGEPGAEERARGDGHTDFVALLTGPRSQAVARARVSLLRSSLRFSISYRRLDRPTRIRFSDSNGSVLFEHPAAPTQDGLVCGVWRAVPRLSLRLLRAEQLHVALVTLTHPSGEVWGPLIRHRALAAETFSAILTLEGPPQQGVGGITLLTLSDTEDSLHFLLLFRGLLEPRSGGLTQVPLRLQILHQGQLLRELQANVSAQEPGFAEVLPNLTVQEMDWLVLGELQMALEWAGRPGLRISGHIAARKSCDVLQSVLCGADALIPVQTGAAGSASLTLLGNGSLIYQVQVVGTSSEVVAMTLETKPQRRDQRTVLCHMAGLQPGGHTAVGICPGLGARGAHMLLQNELFLNVGTKDFPDGELRGHVAALPYCGHSARHDTLPVPLAGALVLPPVKSQAAGHAWLSLDTHCHLHYEVLLAGLGGSEQGTVTAHLLGPPGTPGPRRLLKGFYGSEAQGVVKDLEPELLRHLAKGMASLMITTKGSPRGELRGQVHIANQCEVGGLRLEAAGAEGVRALGAPDTASAAPPVVPGLPALAPAKPGGPGRPRDPNTCFFEGQQRPHGARWAPNYDPLCSLCTCQRRTVICDPVVCPPPSCPHPVQAPDQCCPVCPEKQDVRDLPGLPRSRDPGEGCYFDGDRSWRAAGTRWHPVVPPFGLIKCAVCTCKGGTGEVHCEKVQCPRLACAQPVRVNPTDCCKQCPVGSGAHPQLGDPMQADGPRGCRFAGQWFPESQSWHPSVPPFGEMSCITCRCGAGVPHCERDDCSLPLSCGSGKESRCCSRCTAHRRPAPETRTDPELEKEAEGS
expression levels of the Wnt genes (Wnt-3, Wnt-3a, Wnt-8a) (mouse ES cells [1]): significantly higher than those of the untreated group | regions of EBs exhibiting beating (mouse ES cells [3]; Wnt 48-96 h and 48-120 h groups, Chordin-treated EBs): beating throughout virtually all regions of their surface layer

B3: Wnt-5a: commercially available recombinant mouse-derived Wnt-5a protein (R&D systems) (protein, listed as Mus musculus)
chain: MKKPIGILSPGVALGTAGGAMSSKFFLMALATFFSFAQVVIEANSWWSLGMNNPVQMSEVYIIGAQPLCSQLAGLSQGQKKLCHLYQDHMQYIGEGAKTGIKECQYQFRHRRWNCSTVDNTSVFGRVMQIGSRETAFTYAVSAAGVVNAMSRACREGELSTCGCSRARPKDLPRDWLWGGCGDNIDYGHPFAKEFVDARERERIHAKGSYESARILMNLHNNEAGRRTVYNLADVACKCHGVSGSCSLKTCWLQLADFRKVGDALKEKYDSAAAMRLNSRGKLVQVNSRFNSPTTQDLVYIDPSPDYCVRNESTGSLGTQGRLCNKTSEGMDGCELMCCGRGYDQFKTVQTERCHCKFHWCCYVKCKKCTEIVDQFVCK
occurrence of beating EBs (mouse ES cells [3]): very good occurrence of beating EBs | appearance rate of beating EBs (mouse ES cells [3]): significantly higher than in the untreated group

B4: WNT-1: commercially available recombinant human-derived WNT-1 protein (Peprotech), canonical Wnt (protein, listed as Mus musculus)
chain: MGLWALLPSWVSTTLLLALTALPAALAANSSGRWWGIVNIASSTNLLTDSKSLQLVLEPSLQLLSRKQRRLIRQNPGILHSVSGGLQSAVRECKWQFRNRRWNCPTAPGPHLFGKIVNRGCRETAFIFAITSAGVTHSVARSCSEGSIESCTCDYRRRGPGGPDWHWGGCSDNIDFGRLFGREFVDSGEKGRDLRFLMNLHNNEAGRTTVFSEMRQECKCHGMSGSCTVRTCWMRLPTLRAVGDVLRDRFDGASRVLYGNRGSNRASRAELLRLEPEDPAHKPPSPHDLVYFEKSPNFCTYSGRLGTAGTAGRACNSSSPALDGCELLCCGRGHRTRTQRVTERCNCTFHWCCHVSCRNCTHTRVLHECL
occurrence of beating EBs (mouse ES cells [3]): very good occurrence of beating EBs | appearance rate of beating EBs (mouse ES cells [3]): significantly higher than in the untreated group | cells positive for sarcomeric myosin, GATA-4 and Nkx-2.5 (cmES cells): the great majority of EB-constituting cells were found to be positive
